Data taken from publication PMC3931628.

Tests used:
[1] = target: nectin-1 (human (endogenous in primary tonsil epithelial cells)) (UniProt Q15223)
[2] = target: nectin-1 (human (endogenous in primary tonsil epithelial cells)) (UniProt Q15223); remark: listed apart in the source

UniProt Q15223, sequence (Q15223 31-517): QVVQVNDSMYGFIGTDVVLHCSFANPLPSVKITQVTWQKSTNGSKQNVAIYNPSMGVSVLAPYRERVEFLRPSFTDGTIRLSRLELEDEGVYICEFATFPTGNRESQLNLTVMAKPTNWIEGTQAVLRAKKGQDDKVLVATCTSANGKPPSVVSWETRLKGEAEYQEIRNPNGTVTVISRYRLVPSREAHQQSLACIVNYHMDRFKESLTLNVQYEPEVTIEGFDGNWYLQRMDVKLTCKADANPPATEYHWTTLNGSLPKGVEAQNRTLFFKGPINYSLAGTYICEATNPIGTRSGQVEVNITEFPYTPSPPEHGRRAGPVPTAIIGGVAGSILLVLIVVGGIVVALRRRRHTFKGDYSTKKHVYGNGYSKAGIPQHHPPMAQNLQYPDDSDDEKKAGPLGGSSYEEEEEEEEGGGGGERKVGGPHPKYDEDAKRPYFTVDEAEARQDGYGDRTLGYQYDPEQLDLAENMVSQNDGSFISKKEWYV

In the case of “truncated form of HSV-1 gD ectodomain gD(306t) (domain or fragment)”, the HSV-1 plaque numbers in polarized tonsil cells treated with active tat/gp120; reduction by anti-gD antibodies (10 µg/ml) [1] is reported as 30%, the HSV-1 plaque numbers in polarized tonsil cells treated with active tat/gp120; reduction by anti-nectin-1 antibodies (10 µg/ml) [1] is reported as 40% and the HSV-1 plaque numbers in polarized tonsil cells treated with active tat/gp120; reduction by the combination of anti-gD and anti-nectin-1 antibodies [1] is reported as 60%. The HSV-1 plaque size (infected cells per plaque, cell-to-cell spread) in polarized tonsil cells treated with active tat/gp120; reduction by anti-gD antibodies (10 µg/ml) [1] was 60%, the HSV-1 plaque size (infected cells per plaque, cell-to-cell spread) in polarized tonsil cells treated with active tat/gp120; reduction by anti-nectin-1 antibodies (10 µg/ml) [1] was 50% and the HSV-1 plaque size (infected cells per plaque, cell-to-cell spread) in polarized tonsil cells treated with active tat/gp120; reduction by the combination of anti-nectin-1 and anti-gD antibodies [1] was 70%. It also gave an HSV-1 infection (percent of infected cells, 24 h) of polarized tonsil cells treated with active tat/gp120 or HIV virions; reduction by preincubation with anti-nectin-1 antibody CK-8 (10 µg/ml) [2] of 70%.
